In US20080274096:
Entries after “also recorded” stand apart in the source; their conditions may differ.

What was measured:
[1] = molecular target: Amyloid β1-40 peptide (Bachem)
[2] = molecular target: amyloid β peptide1-40 in guinea pig plasma, Q60495
[3] = molecular target: amyloid β peptide1-42 in guinea pig plasma, Q60495

B1: Recombinant human Neprilysin (R&D Systems) (protein)
chain: YDDGICKSSDCIKSAARLIQNMDATTEPCTDFFKYACGGWLKRNVIPETSSRYGNFDILRDELEVVLKDVLQEPKTEDIVAVQKAKALYRSCINESAIDSRGGEPLLKLLPDIYGWPVATENWEQKYGASWTAEKAIAQLNSKYGKKVLINLFVGTDDKNSVNHVIHIDQPRLGLPSRDYYECTGIYKEACTAYVDFMISVARLIRQEERLPIDENQLALEMNKVMELEKEIANATAKPEDRNDPMLLYNKMTLAQIQNNFSLEINGKPFSWLNFTNEIMSTVNISITNEEDVVVYAPEYLTKLKPILTKYSARDLQNLMSWRFIMDLVSSLSRTYKESRNAFRKALYGTTSETATWRRCANYVNGNMENAVGRLYVEAAFAGESKHVVEDLIAQIREVFIQTLDDLTWMDAETKKRAEEKALAIKERIGYPDDIVSNDNKLNNEYLELNYKEDEYFENIIQNLKFSQSKQLKKLREKVDKDEWISGAAVVNAFYSSGRNQIVFPAGILQPPFFSAQQSNSLNYGGIGMVIGHEITHGFDDNGRNFNKDGDLVDWWTQQSASNFKEQSQCMVYQYGNFSWDLAGGQHLNGINTLGENIADNGGLGQAYRAYQNYIKKNGEEKLLPGLDLNHKQLFFLNFAQVWCGTYRPEYAVNSIKTDVHSPGNFRIIGTLQNSAEFSEAFHCRKNSYMNPEKKCRVW
Amyloid β1-40 peptide degradation (percentage of peptide left, electrochemiluminescence immunoassay) [1]: degraded 88% of Amyloid β1-40 peptide (1 nM) after 3 hours incubation at 37 °C
degradation of Aβ1-40 in guinea pig plasma (ELISA) [2]: Neprilysin degrades Aβ1-40 and Aβ1-42 in a time-dependent manner; also recorded: Neprilysin degrades Aβ1-40 in a dose dependent manner
degradation of Aβ1-42 in guinea pig plasma (ELISA) [3]: Neprilysin degrades Aβ1-40 and Aβ1-42 in a time-dependent manner
